In US20050065080A1, “Use of leptin in fertility” (priority 2001, published 2005):

Key:
LH = assay: Serum LH radioimmunoassay in antide-treated mice; assay type: in vivo, mouse
Description: Leptin induces the GnRH release from the Hypothalamus, which in turn releases FSH and LH from the Pituitary glands (Yu et al. 1997). To test if the follicle development and ovulation induced in the antide-treated C57BL mice and ob/ob mice by leptin is mediated by LH release, serum LH as well as progesterone, which is an LH-induced marker was measured. Measurement of plasma murine LH (mLH) and progesterone were carried out with specific radioimmunoassays. Progesterone was determined in mouse sera by RIA (Kohen 1975). LH was determined in mouse by a specific RIA, obtained trough the National Hormone & Pituitary Program, harbor-UCLA Medical Center (Torrance, California). The levels of mLH were below 0.2 ng/ml in all cases (Table 2). The levels of LH remained low throughout the follicular growth and ovulation in leptin-treated mice. However, it is difficult to detect the LH surge even in positive controls. Therefore, measurement of the LH-induced serum progesterone serve as a more reliable marker of circulating LH.

C57BL/6 mice = assay: Ovulation induction in antide-treated prepubertal C57BL/6 mice (oocyte count); assay type: in vivo, mouse; details: for Oocyte count in C57BL/6 mice: antide-treated, PMSG at 0 h, leptin or hCG at 48 h, oocytes counted at 72 h, range
Description: (§1) In the present example, ovulation was studied in ob/ob mice and in prepubertal C57BL/6 mice. All mice were treated with antide to prevent induction of LH by leptin. […] Following the various treatments, mice were sacrificed and oocytes were collected from the ampoule at 72 hours from the first injection and counted.
(§2) Similarly a group of ob/ob mice were injected with PMSG (3 IU/animal) and after 48 h with leptin (2×5 μg/g weight). […] Ovulation was monitored by counting oocytes in the oviducts under the microscope.

ob/ob mice [1] = assay: Follicular development in antide-treated ob/ob mice (hematoxylin-eosin ovarian sections); assay type: in vivo, mouse; details: for follicular growth in ovarian sections: single agent
Description: The effect of leptin in follicular development was studied in ob/ob mice that were treated with the GnRH antagonist antide (Phillips et al. 1988). It is therefore expected that following administration of leptin to antide treated mice, as opposed to non-treated mice, release of LH or FSH from the pituitary gland will not occur.
8-10 week-old obese C57B1-ob/ob female mice were all injected (time 0) with antide (1.25 μg/g body weight). Mice were divided into several groups. A control group was injected with saline only. A second group was injected with murine leptin (ip,2×5 μg/g body weight purchased from R&D systems) at times 0 and 9 h. A third group was injected with pregnant mare serum gonadotropins (PMSG, 3 IU/mice, sc). A fourth group received a combination of both PMSG and leptin. Mice were sacrificed at 9, 24, and 48 and 72 h following the first treatment, the ovaries were excised, paraffin-fixed and stained with hematoxylin-eosin to visualize follicular and ovarian growth.

ob/ob mice [2] = assay: Ovulation induction in antide-treated ob/ob mice (oocyte count); assay type: in vivo, mouse; details: for Oocyte count in ob/ob mice: antide-treated, PMSG at 0 h, leptin or hCG at 48 h, oocytes counted at 72 h, range
Description: as §1, §2

uterus = assay: Appearance of the uterus in treated mice; assay type: in vivo, mouse; details: for uterus distension and hyperemia: after PMSG, or PMSG followed by hCG or leptin, leptin: ob/ob mice that ovulated
progesterone = assay: Serum progesterone radioimmunoassay in ob/ob and C57BL/6 mice; assay type: in vivo, mouse; details: PMSG at time 0, agent at 48 h, RIA at 72 h; FIG. 1
Description: Mice were treated with PMSG at time 0 and the indicated agent at 48 h. Progesterone was determined by RIA at 72 h in sera of C57BL/6 mice (grey bars) and of ob/ob mice (open bars).

ADAMTS-1 = ADAMTS-1 expression in cultured pre-ovulatory follicles (quantitative RT-PCR); assay type: cell-based, mouse; details: 17 h; leptin 250 ng/ml or hCG 1 IU; normalized to ribosomal protein L19; FIG. 2
Description: Pre-ovulatory follicles were removed, cultured and further treated for 17 h in the absence or presence of either leptin (250 ng/ml) or hCG (1 IU). Total RNA was isolated from the follicles and subjected to quantitative RT-PCR using the LightCycler™ (Roche diagnostics). The primers used for the detection of murine ADAMTS-1 transcripts were:

Cathepsin L = Cathepsin L expression in cultured pre-ovulatory follicles (quantitative RT-PCR); assay type: cell-based, mouse; details: 17 h; not statistically significant
Description: Total RNA was isolated from the follicles and subjected to quantitative RT-PCR with specific primers for two proteases, ADAMTS-1 and Cathepsin L. The PCR products were resolved in agarose gel electrophoresis and scanned. The RNAs levels of ADAMTS-1 were normalized to the RNAs levels of ribosomal protein
To test whether leptin can induce the expression of ADAMTS-1 and cathepsin L by acting directly on the ovary, in vitro experiments were preformed on pre-ovulatory follicles obtained from 21 days old C57BL/6 mice treated with PMSG (3 IU/animal) for 48 h. […] Total RNA was isolated from the follicles and subjected to quantitative RT-PCR using the LightCycler™ (Roche diagnostics). The primers used for the detection of murine ADAMTS-1 transcripts were: […]
The RNAs levels of ADAMTS-1 and cathepsin L detected in agarose gel electrophoresis of the PCR products were normalized to the RNAs levels of murine ribosomal protein L19

[3] = antide + PMSG (48 h) then leptin or hCG (24 h)

antide [reference compound] was tested, and the “Serum LH” value (LH; antide-treated mice, 72 h) was 0.04 ± 0.01 ng/mL, the “Oocyte count in C57BL/6 mice” value (C57BL/6 mice) was 0 and the “follicular growth in ovarian sections” value (ob/ob mice [1]; antide-treated ob/ob mice) was “only early stages of follicular growth”.

For “pregnant mare serum gonadotropins [PMSG, reference compound]”, the “Oocyte count in ob/ob mice” value (ob/ob mice [2]) was 0 oocytes per mouse, the “Serum LH” value (LH; antide + PMSG, 60 h) was 0.2 ng/mL and the “Serum LH” value (LH; antide-treated mice, 72 h) was 0.09 ± 0.01 ng/mL. The “Oocyte count in C57BL/6 mice” value (C57BL/6 mice) was 0, the “uterus distension and hyperemia” value (uterus) was “maximal distension” and the “follicular growth in ovarian sections” value (ob/ob mice [1]; antide-treated ob/ob mice) was “large antral follicles were formed at 72 h”.

B1: leptin (protein, UniProt P41160 22-167, looked up)
Leptin: VPIQKVQDDTKTLIKTIVTRINDISHTQSVSAKQRVTGLDFIPGLHPILSLSKMDQTLAVYQQVLTSLPSQNVLQIANDLENLRDLLHLLAFSKSCSLPQTSGLQKPESLDGVLEASLYSTEVVALSRLQGSLQDILQQLDVSPEC
notes: murine leptin purchased from R&D systems; adipocyte-secreted protein encoded by the obese (ob) gene
With B1 the “ovulation (oocytes in the oviducts)” value (ob/ob mice [2]; PMSG then agent at 48 h, summary of Table 1) was “ovulation was observed”, the “mice ovulated, ob/ob mice” value (ob/ob mice [2]; [3]) was 3 out of 5 mice ovulated and the “Oocyte count in ob/ob mice” value (ob/ob mice [2]) was “(range 1-6 oocytes per oocytes per mouse”. The serum progesterone (progesterone) was “lack of significant progesterone synthesis”, the “Serum LH” value (LH; antide + PMSG 48 h then leptin 12 h) was 0.17 ± 0 ng/mL and the “Serum LH” value (LH; antide + PMSG 48 h then leptin 24 h) was 0.057 ± 0.01 ng/mL. For the same molecule, the “Serum LH” value (LH; antide + leptin, 9 h) was 0.05 ng/mL, the “Serum LH” value (LH; antide + leptin, 24 h) was 0.06 ± 0.01 ng/mL and the “Serum LH” value (LH; antide + leptin, 48 h) was 0.07 ± 0.04 ng/mL. For the same molecule, the “Serum LH” value (LH; antide-treated mice, 72 h) was 0.04 ± 0.01 ng/mL, the “induction of ADAMTS-1 RNA” value (ADAMTS-1) was “significant induction” and the “mice ovulated, C57BL/6 mice” value (C57BL/6 mice; [3]) was 7 out of 7 mice. For the same molecule, the “Oocyte count in C57BL/6 mice” value (C57BL/6 mice) was “(2-7)”, the “induction of Cathepsin L RNA” value (Cathepsin L) was “Marginal induction” and the “uterus distension and hyperemia” value (uterus) was “remained hyperemic, exhibiting maximal distension”. For the same molecule, the uterine features (uterus; antide-treated C57BL/6 mice) was “same uterine features, were also observed”, the uterus hyperemia (uterus; leptin in the absence of PMSG) was “rendered the uterus hyperemic” and the ovarian growth (ob/ob mice [1]; antide-treated ob/ob mice, concomitant PMSG and leptin, after 72 h) was “an interstitial cell growth and further ovarian growth were observed”. The “time at which large follicles could be observed after initiation of treatment” value (ob/ob mice [1]; antide-treated ob/ob mice, as early as) was 9 h, the “follicular growth in ovarian sections” value (ob/ob mice [1]; antide-treated ob/ob mice) was “induced rapid follicular growth” and the “corpora lutea in the ovaries” value (ob/ob mice [1]; ob/ob mice, PMSG at time 0 and leptin instead of hCG at 48 h, seen at 72 h) was “corpora lutea were also seen”.
